According to patent US10829756B2, “Discovery of enzymes from the alpha-keto acid decarboxylase family” (priority 2015, dated 2020):

Experiments:
[1] = substrate: CCCC(=O)C(=O)O; test: Steady-state kinetics of 2-ketoacid decarboxylase (ADH/NADH coupled); assay type: biochemical, Lactococcus lactis; settings: other: pH 7.5, 21° C.
Protocol: (§1) Since KIVD can already efficiently utilize C8 as a substrate, enzyme specificity is of primary importance. Therefore each mutant was screened against a panel of 2-ketoacid substrates in order to assess the specificity and activity of each mutant. (FIG. 11) This assay was performed using a high-throughput pH-dependent colorimetric assay of enzyme activity in crude cell extracts. Mutations that increased specificity for C8 were then combined to produce combinatorial mutants and screened for specificity with the colorimetric assays. […] The engineered enzyme KIVD_VLV has a 600-fold improvement in specificity between C8 and C5, in terms of catalytic efficiency, relative to the native KIVD.
(§2) For the native KIVD and KIVD_VLV mutant, 2 ml overnight cultures of XL1B cells were transformed with pQE9 containing N-terminal his-tagged KIVD enzymes and grown in Terrific Broth (BP biomedical, Cat#3046-042) with 50 μg/mL of carbenicillin. (Fisher scientific, Cat# BP2648-5) For the GEOs, 2 ml overnight cultures of BLR cells were transformed with pet29b+ plasmid containing N-terminal his-tagged GEOs, and grown in Terrific Broth with 50 μg/mL of kanamycin. (Fisher scientific, Cat# BP906-5) These cultures were diluted 1:1000 in 500 mL of Terrific Broth with 1 mM MgSO4, 1% glucose, and 50ug/mL of corresponding antibiotics, then grown at 37° C. for 24 hours. Cultures were pelleted down at 4700 rpm for 10 mins and resuspended in auto-induction media (LB broth, 1 mM MgSO4, 0.1 mM TPP, 1×NPS, and 1×5052) for induction at 18° C. for 34 hours. At the end of induction, cells were centrifuged (4700 rpm, 4° C., 20 minutes), supernatant was removed, and cells were resuspended in 40 mL lysis buffer (100 mM Hepes pH 7.5, 100 mM NaCl, 10% glycerol, 0.1 mM TPP, 1 mM MgSO4, 10 mM Imidazole, 1 mM TCEP) and 1 mM PMSF) and sonicated for 2 minutes. Lysed cells were centrifuged at 4700 rpm at 4° C. for 60 mins to remove cell debris. […] Protein concentrations were determined using a Synergy H1 spectrophotometer (Biotek) by measuring absorbance at 280 nm using their calculated extinction coefficients with ExPASy ProtParam Tool.^33 All other buffers and salts were purchased from Fisher Scientific unless otherwise specified.
(§3) The kcat and KM values of selective KIVD mutants were measured for the substrates: C3, C5, isoC5, and C8. […] Activity was measured at 0.005 mM to 10 mM substrates. […] Absorbance readings were taken every 1-minute at OD340 at 21° C. for 60 minutes using the Synergy H1. Kinetic parameters (kcat and KM) were determined by fitting initial velocity versus substrate concentration data to the Michaelis-Menten equation.

[2] = substrate: CCCCCCC(=O)C(=O)O; test: as above; assay type: biochemical, Lactococcus lactis; settings: other: pH 7.5, 21° C.
Protocol: as §1, §2, §3

B1: KIVD variant G402V/M538L/F542V (KIVD_VLV), SEQ ID NO:3 (Lactococcus lactis subsp. lactis; F542V/G402V/M538L) (protein)
chain: MYTVGDYLLDRLHELGIEEIFGVPGDYNLQFLDQIISRKDMKWVGNANELNASYMADGYARTKKAAAFLTTFGVGELSAVNGLAGSYAENLPVVEIVGSPTSKVQNEGKFVHHTLADGDFKHFMKMHEPVTAARTLLTAENATVEIDRVLSALLKERKPVYINLPVDVAAAKAEKPSLPLKKENSTSNTSDQEILNKIQESLKNAKKPIVITGHEIISFGLEKTVSQFISKTKLPITTLNFGKSSVDEALPSFLGIYNGKLSEPNLKEFVESADFILMLGVKLTDSSTGAFTHHLNENKMISLNIDEGKIFNESIQNFDFESLISSLLDLSEIEYKGKYIDKKQEDFVPSNALLSQDRLWQAVENLTQSNETIVAEQGTSFFGASSIFLKPKSHFIGQPLWVSIGYTFPAALGSQIADKESRHLLFIGDGSLQLTVQELGLAIREKINPICFIINNDGYTVEREIHGPNQSYNDIPMWNYSKLPESFGATEERVVSKIVRTENEFVSVMKEAQADPNRMYWIELILAKEDAPKVLKKLGKLVAEQNKS
Work on B1 yielded a Km [1] of 10.0 ± 1.0 mM, a kcat [1] of 0.013 ± 0.001 s⁻¹ and a Km [2] of 0.18 ± 0.05 mM. For the same protein, the kcat [2] was 0.5 ± 0.03 s⁻¹.
